B1: Rec104 (subunit of the purified S. cerevisiae Spo11 core complex) (natural protein)
chain: MSIEEEDTNKITCTQDFLHQYFVTERVSIQFGLNNKTVKRINKDEFDKAVNCIMSWTNYPKPGLKRTASTYLLSNSFKKSATVSLPFILGDPVCMPKRVESNNNDTCLLYSDTLYDDPLIQRNDQAGDEIEDEFSFTLLRSEVNEIRPISSSSTAQILQSDYSALMYERQASNGSIFQFSSP
notes: Rec104, S. cerevisiae; 182 residues as printed, of which only 9-58 are visible in the structure
B2: Rec102 (subunit of the purified S. cerevisiae Spo11 core complex) (natural protein)
chain: MARDITFLTVFLESCGAVNNDEAGKLLSAWTSTVRIEGPESTDSNSLYIPLLPPGMLKIKLNFKMNDRLVTEEQELFTKLREIVGSSIRFWEEQLFYQVQDVSTIENHVILSLKCTILTDAQISTFISKPRELHTHAKGYPEIYYLSELSTTVNFFSKEGNYVEISQVIPHFNEYFSSLIVSQLEFEYPMVFSMISRLRLKWQQSSLAPISYALTSNSVLLPIMLNMIAQDKSSTTAYQILCRRRGPPIQNFQIFSLPAVTYNK
notes: Rec102, S. cerevisiae
B3: Ski8 (subunit of the purified S. cerevisiae Spo11 core complex) (natural protein)
chain: MSKVFIATANAGKAHDADIFSVSACNSFTVSCSGDGYLKVWDNKLLDNENPKDKSYSHFVHKSGLHHVDVLQAIERDAFELCLVATTSFSGDLLFYRITREDETKKVIFEKLDLLDSDMKKHSFWALKWGASNDRLLSHRLVATDVKGTTYIWKFHPFADESNSLTLNWSPTLELQGTVESPMTPSQFATSVDISERGLIATGFNNGTVQISELSTLRPLYNFESQHSMINNSNSIRSVKFSPQGSLLAIAHDSNSFGCITLYETEFGERIGSLSVPTHSSQASLGEFAHSSWVMSLSFNDSGETLCSAGWDGKLRFWDVKTKERITTLNMHCDDIEIEEDILAVDEHGDSLAEPGVFDVKFLKKGWRSGMGADLNESLCCVCLDRSIRWFREAGGK
notes: Ski8, S. cerevisiae

Tests used:
[1] = target: B2; experiment: cryo-EM structure; core complex (subunits co-expressed and co-purified, ~0.2 mg/ml) incubated with hairpin DNA (3.7 Å) or gapped DNA (3.3 Å) at 1:2 protein:DNA in 25 mM HEPES-NaOH pH 7.5, 150 mM NaCl, 5 mM MgCl2, 2 mM DTT, 2% glycerol, 1 h on ice; conditions: both partners purified
[2] = target: T1, Spo11 (subunit of the purified S. cerevisiae Spo11 core complex) (S. cerevisiae, UniProt P23179 1-392); experiment: as above; conditions: both partners purified
T1 construct: Spo11, S. cerevisiae
T1 sequence: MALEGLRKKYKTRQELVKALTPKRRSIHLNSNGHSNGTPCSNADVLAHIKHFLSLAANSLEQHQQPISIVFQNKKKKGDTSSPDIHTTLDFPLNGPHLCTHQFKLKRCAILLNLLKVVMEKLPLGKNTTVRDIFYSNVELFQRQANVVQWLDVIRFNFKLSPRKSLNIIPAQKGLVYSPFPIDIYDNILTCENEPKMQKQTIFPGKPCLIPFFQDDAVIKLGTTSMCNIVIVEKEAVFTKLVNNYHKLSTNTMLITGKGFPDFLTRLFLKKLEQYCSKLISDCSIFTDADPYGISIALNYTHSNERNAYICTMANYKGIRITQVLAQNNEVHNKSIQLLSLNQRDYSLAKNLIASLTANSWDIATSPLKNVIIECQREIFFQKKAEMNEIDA

| Binder | stoichiometry N [1] | stoichiometry N [2] |
| --- | --- | --- |
| B1 | 1 | 1 |
| B2 | – | 1 |
| B3 | – | 1 |
